Measured values reported in patent US20240226186A9, “OBLIGATE ANAEROBIC HUMAN INTESTINAL MICROBE FOR CANCER TREATMENT, AND USE THEREOF” (HEALTHBIOME, priority 2019, published 2024).

B1: HB03-03: protein produced by the HB03 strain, SEQ ID NO 2, overexpressed in E. coli and purified (protein)
chain: IPESSVPAAAVSSVKGAYPNAGPIEWDSEMHGMERIYEAEFRINGFQFDVKIAPDGKIVRIKEEIAASSLPEAVRASVLKRYPGCRIKEAEKITEGELVRYKVEVADSRDDYDVLIAPDGNILHVDR
modifications: HB03-03
B2: HB03-01: protein produced by the HB03 strain, SEQ ID NO 1, overexpressed in E. coli and purified (protein)
chain: IVNSKRSELDKKISIAAKEIKSANAAEITPSRSSNEELEKELNRYAKAVGSLETAYKPFLASSALVPTTPTAFQNELKTFRDSLISSCKKKNILITDTSSWLGFQVYSTQAPSVQAASTLGFELKAINSLVNKLAECGLSKFIKVYRPQLPIETPANNPEESDEADQAPWTPMPLEIAFQGDRESVLKAMNAITGMQDYLFTVNSIRIRNERMMPPPIANPAAAKPAAAQPATGAASLTPADEATAPAAPAIQQVIKPYMGKEQVFVQVSLNLVHFNQPKAQEPSED
modifications: HB03-01

Legend:
caspase-3 = test: Western blot of caspase-3 activity level in lung cancer cells; type: cell-based; details: LLC lung cancer cells, 10 μg/mL for 24 hours (FIG. 18C)
Protocol: (§1) Then, it was investigated whether the purified HB03-01 and HB03-03 proteins affect the proliferation or apoptosis of cancer cells. Specifically, after treating colorectal cancer cells (CT26) and lung cancer cells (LLC) with the HB03-derived protein HB03-01 at concentrations of 0 (untreated), 0.1, 1.0 or 10 μg/mL or with HB03-03 at 10 μg/mL, the proliferation of the cancer cells and the activity of the apoptosis-regulating enzyme caspase-3 were investigated.
Western blot was conducted to investigate the activity level of caspase-3. Lung cancer cells treated with 10 μg/mL of HB03-01 or HB03-03 for 24 hours were homogenized in an ice-cold 20 mM Tris-HCl buffer (pH 7.5) containing 2 mM EDTA (ethylenediaminetetraacetic acid), 0.5 mM EGTA (ethylene glycol tetraacetic acid), 300 mM sucrose and 2 mM PMSF (phenylmethylsulfonyl fluoride). After electrophoresing 50 μg of proteins on 15% SDS-PAGE (sodium dodecyl sulfate-polyacrylamide gel electrophoresis) gel, they were transferred onto a PVDF (polyvinylidene fluoride) membrane using a semidry transfer system (Hoefer, Holliston, MA, USA). Non-specific binding was blocked by incubating with 5% non-fat dry milk. […] The immune complexes were detected using an ECL detection kit (Amersham Biosciences Korea, Seoul, Korea) and auto-radiographed onto an X-ray film. […]

[1] = test system: MC38 colorectal cancer cells; test: Tumor growth in mice inoculated with MC38 colorectal cancer cells; type: in vivo, C57BL/6 JAX mice; details: administered 5 times until day 16 with 2-day intervals from day 5 (FIG. 19)
Source text: 6- to 8-week old male C57BL/6J JAX and BALB/c mice purchased from Daehan Biolink were used. Each of the mice was housed in a cage and was maintained under a controlled environment (12-hour light/dark cycle, light-off at 7 pm) with free access to feed and water ad libitum. Tumorigenesis was induced by injecting pancreatic cancer cells (Panc02), melanoma cells (B16F10), glioma cells (GL261), sarcoma cells (MCA205) colorectal cancer cells (MC38) and lung cancer cells (LLC) to the C57BL/6 JAX mice and injecting colorectal cancer cells (CT26) to the BALB/c mice. Specifically, 1×10^7 cells/100 μL of Panc02, 2×10^5 cells/100 μL of B16F10, 5×10^5 cells/100 μL of GL261, 5×10^5 cells/100 μL of MCA205, 5×10^5 cells/100 μL of MC38, 5×10^5 cells/100 μL of LLC or 5×10^5 cells/100 μL of CT26 tumor cells were subcutaneously injected to the mice. Tumor size was measured with 2- or 3-day intervals until the end of the experiment, and tumor volume was calculated as length×width^2×0.5. In order to investigate the change in tumor size and immune environment owing to HB03 and its fragment, intestinal contents were recovered, immersed in liquid nitrogen and then kept at −80° C. All animal experimental procedures were approved by the Animal Care and Use Committee of Korea Research Institute of Bioscience and Biotechnology. […]

lung cancer cells (LLC) = test: MTT assay, proliferation of lung cancer cells; type: cell-based; details: LLC, 0.1, 1.0 or 10 μg/mL for 48 hours, 2-DG 20 mM (FIG. 18B)
Protocol: as §1
(§2) MTT assay was conducted to investigate the change in the proliferation of the cancer cells. The cancer cells were cultured using a DMEM medium (Gibco, USA) for 24 hours on a 96-well plate at 1×10^4 cells/well in a 5% CO2 incubator at 37° C. A low-glucose condition was maintained by treating with 2-deoxyglucose (2-DG) to a final concentration of 20 mM. After culturing for 6 hours, HB03-01 was treated at a concentration of 0, 0.1, 1.0 or 10 μg/mL for 48 hours. After adding 10 μL of an MTT solution, the cells were cultured further for 2 hours. After removing the medium from the 96-well plate and dissolving a formazan formed on the plate with 100 μL of DMSO, absorbance was measured at 540 nm using an ELISA reader (Model 680, BioRad). A control group was treated with 0 μg/mL HB03-01 (untreated), and the measurement values were represented as relative cell survivability (%) with respect to the number of cells in the control group as 100%.

[2] = test system: colorectal cancer cells (CT26); test: MTT assay, proliferation of colorectal cancer cells; type: cell-based; details: CT26, 0.1, 1.0 or 10 μg/mL for 48 hours, 2-DG 20 mM (FIG. 18A)
Protocol: as §1, §2

Molecule | Activation of apoptosis-regulating enzyme (caspase-3) (caspase-3) | Tumor growth vs control group, post-treatment with HB03-derived protein [1] | Proliferation of lung cancer cells (relative cell survivability) (lung cancer cells (LLC)) | Proliferation of colorectal cancer cells (relative cell survivability) [2]
B1 | activated | significantly inhibit tumor growth |  | 
B2 | activated | significantly inhibit tumor growth | significantly decreased | significantly decreased
